In article PMC2918618, “Characterization of the TnsD-attTn7 complex that promotes site-specific insertion of Tn7” (Mobile DNA, 2010):

Columns and labels:
Experiment in all cases: EMSA; Gel-shift buffer not given (as described in ref. 6); TnsD stored in 500 mM KCl, 50 mM Tris-HCl pH 8.0, 1 mM EDTA, 2 mM DTT, 25% glycerol
Conditions in all cases: protein: recombinant
[1] = molecular target: T1, TnsD 1-498 (Escherichia coli (transposon Tn7), UniProt P13991 1-498)
T1 sequence: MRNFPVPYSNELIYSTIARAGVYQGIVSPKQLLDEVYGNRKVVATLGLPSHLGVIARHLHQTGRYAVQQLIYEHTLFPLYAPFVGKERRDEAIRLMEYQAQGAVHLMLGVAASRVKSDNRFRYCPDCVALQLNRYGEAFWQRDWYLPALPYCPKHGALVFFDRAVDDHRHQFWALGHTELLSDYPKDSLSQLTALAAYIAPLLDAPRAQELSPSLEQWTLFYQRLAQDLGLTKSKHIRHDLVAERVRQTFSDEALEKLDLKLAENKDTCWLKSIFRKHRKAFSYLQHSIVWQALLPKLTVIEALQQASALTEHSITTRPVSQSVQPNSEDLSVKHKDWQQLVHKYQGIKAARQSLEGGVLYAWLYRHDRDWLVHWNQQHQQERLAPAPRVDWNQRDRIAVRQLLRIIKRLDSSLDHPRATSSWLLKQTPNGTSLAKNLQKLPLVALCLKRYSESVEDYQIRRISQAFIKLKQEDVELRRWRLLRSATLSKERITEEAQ

[2] = molecular target: T2, TnsD 1-480 (Escherichia coli (transposon Tn7), UniProt P13991 1-480)
T2 sequence: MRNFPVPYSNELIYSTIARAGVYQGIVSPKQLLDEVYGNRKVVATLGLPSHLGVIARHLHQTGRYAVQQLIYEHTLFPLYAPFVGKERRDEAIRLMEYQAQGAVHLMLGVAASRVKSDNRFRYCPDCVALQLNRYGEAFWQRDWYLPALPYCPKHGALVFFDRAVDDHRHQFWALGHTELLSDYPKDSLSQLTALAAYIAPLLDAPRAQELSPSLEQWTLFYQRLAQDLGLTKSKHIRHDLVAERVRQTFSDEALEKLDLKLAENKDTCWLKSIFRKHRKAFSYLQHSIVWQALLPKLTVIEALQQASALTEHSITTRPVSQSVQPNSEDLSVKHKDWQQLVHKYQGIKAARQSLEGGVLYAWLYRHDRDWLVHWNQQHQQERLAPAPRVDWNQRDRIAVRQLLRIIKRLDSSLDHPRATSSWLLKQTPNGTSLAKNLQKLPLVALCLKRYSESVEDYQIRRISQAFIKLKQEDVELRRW

[3] = molecular target: T3, TnsD 1-350 (Escherichia coli (transposon Tn7), UniProt P13991 1-350)
T3 sequence: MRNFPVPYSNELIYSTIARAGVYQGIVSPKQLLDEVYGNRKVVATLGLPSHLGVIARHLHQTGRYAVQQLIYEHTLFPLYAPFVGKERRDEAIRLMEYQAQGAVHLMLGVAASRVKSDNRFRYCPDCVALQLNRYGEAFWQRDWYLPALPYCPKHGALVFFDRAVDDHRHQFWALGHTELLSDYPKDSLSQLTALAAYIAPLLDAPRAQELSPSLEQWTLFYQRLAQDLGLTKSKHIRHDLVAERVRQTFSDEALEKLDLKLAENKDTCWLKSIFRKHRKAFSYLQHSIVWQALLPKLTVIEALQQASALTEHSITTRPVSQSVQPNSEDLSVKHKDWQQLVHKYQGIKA

[4] = molecular target: T4, TnsD 1-490 (Escherichia coli (transposon Tn7), UniProt P13991 1-490)
T4 sequence: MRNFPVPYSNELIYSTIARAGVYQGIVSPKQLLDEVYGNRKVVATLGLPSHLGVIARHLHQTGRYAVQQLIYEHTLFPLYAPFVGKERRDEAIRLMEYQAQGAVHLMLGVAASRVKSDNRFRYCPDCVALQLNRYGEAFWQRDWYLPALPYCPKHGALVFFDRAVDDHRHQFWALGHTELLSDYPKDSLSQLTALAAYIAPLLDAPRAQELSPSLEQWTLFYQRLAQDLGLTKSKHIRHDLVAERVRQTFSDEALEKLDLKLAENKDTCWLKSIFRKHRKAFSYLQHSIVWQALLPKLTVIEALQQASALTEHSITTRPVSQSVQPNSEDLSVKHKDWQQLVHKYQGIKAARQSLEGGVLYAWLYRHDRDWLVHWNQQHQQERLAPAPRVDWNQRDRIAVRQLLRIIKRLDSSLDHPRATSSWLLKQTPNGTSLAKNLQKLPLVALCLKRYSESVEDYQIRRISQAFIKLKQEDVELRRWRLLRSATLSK

[5] = molecular target: T5, TnsD 1-399 (Escherichia coli (transposon Tn7), UniProt P13991 1-399)
T5 sequence: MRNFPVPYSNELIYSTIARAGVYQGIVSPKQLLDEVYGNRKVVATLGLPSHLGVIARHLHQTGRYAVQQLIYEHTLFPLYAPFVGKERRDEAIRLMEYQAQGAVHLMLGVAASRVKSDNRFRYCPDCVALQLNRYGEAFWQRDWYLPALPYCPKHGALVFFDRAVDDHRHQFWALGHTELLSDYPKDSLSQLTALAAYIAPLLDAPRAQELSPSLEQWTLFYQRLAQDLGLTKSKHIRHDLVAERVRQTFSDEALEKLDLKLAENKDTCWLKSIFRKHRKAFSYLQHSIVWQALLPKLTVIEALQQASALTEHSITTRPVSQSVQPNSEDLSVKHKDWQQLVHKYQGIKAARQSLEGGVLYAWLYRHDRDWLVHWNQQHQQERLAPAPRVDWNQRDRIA

Measured: binding result

B1: attTn7 wt (+23 to +58) (dsDNA)
DNA 1: CCGCGTAACCTGGCAAAATCGGTTACGGTTGAGTAA
DNA 2: TTACTCAACCGTAACCGATTTTGCCAGGTTACGCGG
no binding: [1] | [2] | [3] | [4] | [5]
